# Assay results taken from PMC4072508, “Genome-Wide Prediction and Validation of Peptides That Bind Human Prosurvival Bcl-2 Proteins” (PLoS Computational Biology, 2014).
# T1: Bcl-w, Q92843
# T1 chain: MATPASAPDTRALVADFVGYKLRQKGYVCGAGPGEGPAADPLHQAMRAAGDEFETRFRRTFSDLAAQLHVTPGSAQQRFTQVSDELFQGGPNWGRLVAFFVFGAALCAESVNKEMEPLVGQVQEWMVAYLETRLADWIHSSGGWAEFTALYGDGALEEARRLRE
# T2: Bcl-2, P10415
# T2 chain: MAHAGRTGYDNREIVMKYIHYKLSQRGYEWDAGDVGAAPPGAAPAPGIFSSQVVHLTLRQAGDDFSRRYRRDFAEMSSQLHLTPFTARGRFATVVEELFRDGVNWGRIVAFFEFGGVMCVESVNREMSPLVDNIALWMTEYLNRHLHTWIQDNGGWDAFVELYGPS
# T3: Bfl-1, Q16548
# T3 chain: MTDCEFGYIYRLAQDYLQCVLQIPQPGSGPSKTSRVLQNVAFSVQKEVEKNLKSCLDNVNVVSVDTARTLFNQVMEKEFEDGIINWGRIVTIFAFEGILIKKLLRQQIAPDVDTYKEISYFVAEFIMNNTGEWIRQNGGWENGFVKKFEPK
# T4: Mcl-1, Q07820
# T4 chain: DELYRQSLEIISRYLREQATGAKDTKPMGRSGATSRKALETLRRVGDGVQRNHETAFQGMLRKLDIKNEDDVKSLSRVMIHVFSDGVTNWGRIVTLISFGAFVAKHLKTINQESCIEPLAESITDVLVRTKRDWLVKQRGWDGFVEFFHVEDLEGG
# How the values were obtained:
# Bcl-xL, Q07817 [1] = experiment: fluorescence polarisation, direct titration of receptor into 10 nM labelled peptide
# Bcl-xL, Q07817, sequence (Q07817 1-209): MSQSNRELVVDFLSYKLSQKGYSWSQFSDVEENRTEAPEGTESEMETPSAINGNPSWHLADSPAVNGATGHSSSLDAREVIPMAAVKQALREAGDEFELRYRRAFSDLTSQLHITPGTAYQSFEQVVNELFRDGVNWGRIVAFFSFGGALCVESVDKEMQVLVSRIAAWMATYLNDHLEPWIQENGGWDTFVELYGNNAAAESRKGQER
# Bcl-w, Q92843 = molecular target: T1, Bcl-w, Q92843; experiment: as above
# Bcl-2, P10415 = molecular target: T2, Bcl-2, P10415; experiment: as above
# Bfl-1, Q16548 [2] = molecular target: T3, Bfl-1, Q16548; experiment: as above
# Mcl-1, Q07820 [3] = molecular target: T4, Mcl-1, Q07820; experiment: as above
# Bcl-xL, Q07817 [4] = experiment: peptide SPOT array, c-Myc-tagged receptor at 1 uM or 100 nM, anti-c-Myc-Cy3
# Bfl-1, Q16548 [5] = molecular target: T3, Bfl-1, Q16548; experiment: as above
# Mcl-1, Q07820 [6] = molecular target: T4, Mcl-1, Q07820; experiment: as above
Binder,"Kd (Bcl-xL, Q07817 [1])","Kd (Bcl-w, Q92843)","Kd (Bcl-2, P10415)","Kd (Bfl-1, Q16548 [2])","Kd (Mcl-1, Q07820 [3])","SPOT signal as a fraction of Bim BH3's signal on the same receptor and array (Bcl-xL, Q07817 [4])","SPOT signal as a fraction of Bim BH3's signal on the same receptor and array (Bfl-1, Q16548 [5])","SPOT signal as a fraction of Bim BH3's signal on the same receptor and array (Mcl-1, Q07820 [6])"
LCQLSCVSKLMRDVCGSLLQSRGMVI [FBXO30],> 10 µM,3.28 µM,2.56 µM,> 10 µM,> 10 µM,0.62,0.31,0.28
PAKKMTLSEIYRWICDNFPYYKNAGI [FOXJ2],0.103 µM,0.085 µM,0.13 µM,> 3.37 µM,> 10 µM,2.03,0.54,0.47
QRKHEGFERDLAALGDKVNSLGETAE [SPTAN1],> 7 µM,> 4.35 µM,> 3.04 µM,> 3.37 µM,3.85 µM,0.12,0.13,0.27
FVGYNSTGAELRHWSDMLANPRRPIA [SYT1],> 6.9 µM,> 4.35 µM,> 100 µM,> 3.37 µM,> 4 µM,1.41,0.37,0.32
LMARPAVALHFQSIADGFKEAVRYVL [SOS2],> 6.9 µM,5.38 µM,3.29 µM,> 3.29 µM,> 4 µM,0.85,0.43,1.08
SKFVILSAHKLVFIGDTLSRQAKAAD [BCAR1],2.54 µM,3.61 µM,2.99 µM,4.69 µM,0.912 µM,0.1,,0.06
RVCPYYLSRNLKQQADIIFMPYNYLL [RTEL1],1.38 µM,> 100 µM,0.342 µM,> 4 µM,> 4 µM,2.13,0.72,1.42
FKAWGKFGGAFCRYADEMKEIQERQR [PURB],> 100 µM,> 1.8 µM,0.034 µM,> 4.67 µM,> 4 µM,1.83,1.05,1.16
AELRLFLAQRLRWLCDSCPASRATCV [NBEAL2],0.01 µM,0.029 µM,0.016 µM,3.27 µM,3.81 µM,1.24,0.46,1.01
AIILCNVCGNLCTDCDRFLHLHRRTK [MYCBP2],> 10 µM,4.07 µM,1.18 µM,> 3.37 µM,> 10 µM,0.8,0.54,0.29
